One block for each substance: values may come before it.
Assays:
[1] = target: ctXPB (from E. coli) (Chaetomium thermophilum)
[2] = target: ctXPB (from E. coli) (Chaetomium thermophilum); remark: listed apart in the source
[3] = target: ctXPB (from E. coli) (Chaetomium thermophilum); remark: listed apart in the source
[4] = tested on: ctXPB (Chaetomium thermophilum); test: fluorescence polarization; conditions: 20 mM HEPES pH 7.5, 10 mM KCl, 2.5 mM MgCl2, 1 mM TCEP, 6 nM DNA, room temperature
[5] = tested on: ctXPB;ctp52;ctp8 (Chaetomium thermophilum;Chaetomium thermophilum;Chaetomium thermophilum); test: fluorescence polarization; conditions: ctp52/ctp8 2:1 to ctXPB; Kd in nM XPB; 2.5 mM MgCl2, no ATP stated; 20 mM HEPES pH 7.5, 10 mM KCl, 2.5 mM MgCl2, 1 mM TCEP, 6 nM DNA, room temperature

activation of ctXPB's ATPase by the ctp52/ctp8 variant, percent of wild type ctp52/ctp8 (% of wild type) [1]: 116
Substance: ctp52_R386L/ctp8 complex

ATPase activity of ctXPB on titration of the co-purified ctp52/ctp34 complex to a fixed amount of ctXPB (Vmax 9.3 μmol ATP*l^−1*min^−1); EC50 [2]: 0.178 µM
Substance: ctp52 (natural protein)

activation of ctXPB's ATPase by the ctp52/ctp8 variant, percent of wild type ctp52/ctp8 (% of wild type) [1]: 6
Substance: ctp52_E359K/R363E / ctp8 complex

activation of ctXPB's ATPase by the ctp52/ctp8 variant, percent of wild type ctp52/ctp8 (% of wild type) [1]: 53
Substance: ctp52_Y365A/ctp8 complex

activation of ctXPB's ATPase by the ctp52/ctp8 variant, percent of wild type ctp52/ctp8 (% of wild type) [1]: 46
Substance: ctp52_F387K/ctp8 complex

activation of ctXPB's ATPase by the ctp52/ctp8 variant, percent of wild type ctp52/ctp8 (% of wild type) [1]: 57
Substance: ctp52_M390E/ctp8 complex

More lines, now with the values behind:

Substance: ctp52/ctp8 complex (wild type, co-purified)
ATPase activity of ctXPB on titration of the co-purified ctp52/ctp8 complex to a fixed amount of ctXPB (full activation 20.1 μmol ATP*l^−1*min^−1); EC50 [2]: 0.153 µM
decrease of the dsDNA-activated ATPase activity of ctXPB (from 58.8 to 18.9 μmol ATP*l^−1*min^−1) on titration of ctp52/ctp8 to an equimolar ctXPB/DNA complex; EC50 [3]: 0.138 µM

Substance: AGCTACCATGCCTGCACGAATTAAGCAATTCGTAATCATGGTCATAGC (double strand) [Cy3-dsDNA 48 bp]
Kd [4]: 0.077 µM
Kd [5]: 51 nM

Substance: ctp52_R363E/ctp8 complex
activation of ctXPB's ATPase by the ctp52/ctp8 variant, percent of wild type ctp52/ctp8 (% of wild type) [1]: 134

Substance: ctp52_E359K/ctp8 complex
activation of ctXPB's ATPase by the ctp52/ctp8 variant, percent of wild type ctp52/ctp8 (% of wild type) [1]: 5

Reference: paper PMC7708078, “How to limit the speed of a motor: the intricate regulation of the XPB ATPase and translocase in TFIIH” (Nucleic Acids Research, 2020)
